From patent US7838231

Legend:
[1] = target: endogenous ATF4 of HEK293T cells (UniProt P18848); experiment: cell-based or functional assay
[2] = target: full-length ATF4 (pCEP-ATF4) (UniProt P18848); experiment: cell-based or functional assay
full-length ATF4 (pCEP-ATF4), sequence (P18848 whole entry): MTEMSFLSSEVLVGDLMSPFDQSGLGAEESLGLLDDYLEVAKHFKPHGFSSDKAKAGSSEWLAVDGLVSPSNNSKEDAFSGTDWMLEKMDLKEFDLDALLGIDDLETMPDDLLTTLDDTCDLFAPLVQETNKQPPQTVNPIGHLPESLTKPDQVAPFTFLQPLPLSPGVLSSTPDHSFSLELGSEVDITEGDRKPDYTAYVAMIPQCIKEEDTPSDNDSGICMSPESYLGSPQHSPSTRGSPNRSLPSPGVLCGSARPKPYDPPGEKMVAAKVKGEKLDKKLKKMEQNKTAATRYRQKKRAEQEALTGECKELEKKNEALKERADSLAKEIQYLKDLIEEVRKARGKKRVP

endogenous ATF4 of HEK293T cells, sequence (P18848 whole entry): as above

| reporter activity (pCRE-ATF4X2, HEK293T cells) after knock-down of NPHP6 with pTER-NPHP6, compared to empty vector [1] | reporter activity (dual-luciferase reporter construct for ATF4, pCRE-ATF4×2, in HEK293T cells), compared to empty vector pCEP4F [2] | reporter activity (pCRE-ATF4×2, HEK293T cells) with either construct alone, compared to empty vector pCEP4F [2] | Substance |
| --- | --- | --- | --- |
| 75.4% | – | – | endogenous NPHP6 of HEK293 / HEK293T cells (from UniProt O15078 1-2479) |
| – | 9.7 fold | 2 fold | myc-tagged full-length human NPHP6 (pCJW206-Cep290) (from UniProt O15078 1-2479) |
